Several values for one entry are separate records, joined by “and”; a condition that tells them apart may be missing. Equal entries are not always repeated.

One experiment relates to c-caspase-3. Put plainly: c/t caspase-3 in lungs of CLP mice, Western blot. To be noted: 10 mg/kg NDI, 20 h; for lung c/t caspase-3 (Figure 5E): individual mice, 10 mg/kg. The experiment is classed as in vivo, mouse. As for the experimental part:
Sepsis was induced in mice by cecal ligation and puncture (CLP) as described previously ([45], [46]). Mice were anesthetized with isoflurane to a surgical plane and placed in a supine position. CLP was performed through a midline laparotomy. The abdomen was shaved and disinfected. Through a 2 cm midline incision, the cecum was exposed and then ligated with a 4-0 silk suture 1 cm proximal from the distal cecal extremity. For 20-hour CLP experiments, the cecum was punctured twice with a 22-gauge needle. A small amount of cecal content was extruded through both holes, and the ligated cecum was returned to the peritoneal cavity. The wound was closed in layers. For 10-day sepsis survival studies, the cecum was punctured once with a 22-gauge needle. A small amount of cecal content was extruded. Mice were allocated to the vehicle and adoptive transfer of DLL4^+ neutrophils or DLL4^– neutrophils groups. […] Vehicle groups received an equivalent volume of PBS, while treatment groups received NDI 10 mg/kg in […] PBS via retro-orbital injection after CLP. This dose was chosen primarily on the basis of our laboratory’s prior experience, we have consistently used this dose in mouse CLP models with reproducible efficacy and without observable toxicity ([39], [44]). Sham-operated animals underwent a laparotomy without CLP. After closure, the mice received a subcutaneous injection of 0.5 mL of normal saline to overcome surgery-induced dehydration. For 20-hour experiments, animals were not injected with antibiotics; however, for survival studies, animals were given 0.5 mg per kg body weight imipenem (lot 4D21K05, WG Critical Care LLC) subcutaneously in 0.5 mL saline once at the end of CLP. All mice were subcutaneously injected with a single dose of 0.1 mg/kg buprenorphine after CLP.
PVECs and lung tissue were collected in previous steps. Whole-cell proteins were extracted, and the protein concentration was measured using an ABC protein assay kit (catalog 5000002, Bio-Rad). […] Bands were detected using an Odyssey FC Dual-Mode Imaging system 2800 (LI-COR).
A general note: Immunoblotting shows a protein as a band on a membrane.

Another experiment concerns KC. The experiment in a line: Lung keratinocyte chemoattractant (KC) mRNA, CLP mice. The experiment is classed as in vivo, mouse. To be noted: 20 h; for lung KC mRNA (Figure 6H): 10 mg/kg NDI, vs sham, individual mice. As for the experimental part:
Sepsis was induced in mice by cecal ligation and puncture (CLP) as described previously ([45], [46]). Mice were anesthetized with isoflurane to a surgical plane and placed in a supine position. CLP was performed through a midline laparotomy. The abdomen was shaved and disinfected. Through a 2 cm midline incision, the cecum was exposed and then ligated with a 4-0 silk suture 1 cm proximal from the distal cecal extremity. For 20-hour CLP experiments, the cecum was punctured twice with a 22-gauge needle. A small amount of cecal content was extruded through both holes, and the ligated cecum was returned to the peritoneal cavity. The wound was closed in layers. For 10-day sepsis survival studies, the cecum was punctured once with a 22-gauge needle. A small amount of cecal content was extruded. Mice were allocated to the vehicle and adoptive transfer of DLL4^+ neutrophils or DLL4^– neutrophils groups. Adoptive transfer mice received a retro-orbital injection of 1 × 10^6 cells per mouse DLL4^+ neutrophils or DLL4^– neutrophils in […] phosphate-buffered saline (PBS) immediately after abdominal closure in both the 20-hour experiments and the survival study. Vehicle groups received an equivalent volume of PBS, while treatment groups received NDI 10 mg/kg in […] PBS via retro-orbital injection after CLP. This dose was chosen primarily on the basis of our laboratory’s prior experience, we have consistently used this dose in mouse CLP models with reproducible efficacy and without observable toxicity ([39], [44]). Sham-operated animals underwent a laparotomy without CLP. After closure, the mice received a subcutaneous injection of 0.5 mL of normal saline to overcome surgery-induced dehydration. For 20-hour experiments, animals were not injected with antibiotics; however, for survival studies, animals were given 0.5 mg per kg body weight imipenem (lot 4D21K05, WG Critical Care LLC) subcutaneously in 0.5 mL saline once at the end of CLP. All mice were subcutaneously injected with a single dose of 0.1 mg/kg buprenorphine after CLP. […]

For a further experiment, the system named is DLL3. Put plainly: DLL3 mRNA in eCIRP-treated BMDNs, qPCR. The experiment is classed as cell-based, mouse. To be noted: for DLL3 mRNA: DLL3-CIRP. On the procedure: mRNA was extracted from lung tissues with TRIzol reagent (Invitrogen, Thermo Fisher Scientific). An equal amount ([…]) of mRNA was reverse-transcribed into cDNA using the reverse transcriptase enzyme (Invitrogen, Thermo Fisher Scientific). qPCR was performed from the diluted cDNA templates with forward and reverse primers (Supplemental Table 4) and SYBR Green PCR Master Mix (Applied Biosystems, Thermo Fisher Scientific) using an Applied Biosystems 7300 real-time PCR machine. Mouse β-actin served as an internal control gene for normalization. Relative expression of mRNA was represented as fold change in comparison with the sham group.
BMDNs (1 × 10^6) were treated with eCIRP (1 μg/mL) for 12 hours, and DLL1, DLL3, and DLL4 were analyzed by qPCR.
In general terms: In qPCR the cycle at which signal appears reflects the starting amount.

Consider ECAGSPCHNGGTCEDGI [NDI], for which the “lung c/t caspase-3 (Figure 5E)” value in the experiment on c-caspase-3 (DLL4^+ neutrophils + CLP) is 0.946 and 0.8954 and 1.049 and 0.8952 and 1.09 and 1.113 and 0.9785 and 0.9235 and 1.192; in the experiment on c-caspase-3 (DLL4^– neutrophils + CLP) it was 1.224 and 1.151 and 0.8027 and 0.9965 and 0.8798 and 1.281. Besides, the “effect on lung c-caspase-3” value in the experiment with c-caspase-3 (DLL4^+ neutrophils/sepsis) is “attenuated the expression/activation”. In addition, the “effect on lung KC mRNA” value in the experiment on KC (DLL4^+ neutrophil-injected CLP mice, 10 mg/kg) is “significantly decreased the mRNA expression of TNF-α, IL-6, and KC in lung tissues”. In addition, the “lung KC mRNA (Figure 6H)” value is 5.903 fold change and 0.6661 fold change and 4.862 fold change and 4.727 fold change and 4.686 fold change and 3.906 fold change and 2.6276 fold change and 0.3013 fold change and 7.635 fold change and 2.927 fold change and 2.999 fold change and 5.493 fold change and 8.856 fold change and 7.751 fold change and 5.829 fold change and 6.917 fold change with KC (DLL4^+ neutrophils + CLP); 5.187 fold change and 6.094 fold change and 6.9598 fold change and 7.18 fold change and 9.417 fold change and 3.542 fold change and 4.905 fold change and 5.1155 fold change and 3.48 fold change and 3.364 fold change with KC (DLL4^– neutrophils + CLP).

B1: eCIRP: extracellular cold-inducible RNA-binding protein; recombinant murine, produced in our laboratory (protein, UniProt P60824 1-172, looked up)
Cold-inducible RNA-binding …: MASDEGKLFVGGLSFDTNEQALEQVFSKYGQISEVVVVKDRETQRSRGFGFVTFENIDDAKDAMMAMNGKSVDGRQIRVDQAGKSSDNRSRGYRGGSAGGRGFFRGGRSRGRGFSRGGGDRGYGGGRFESRSGGYGGSRDYYASRSQGGSYGYRSSGGSYRDSYDSYATHNE
Turning to B1, in the experiment with DLL3 (BMDNs, eCIRP 1 μg/mL, 12 h), the “effect on DLL3 expression” value is recorded as “no significant induction of DLL1 or DLL3”. In addition, the “DLL3 mRNA” value is listed as 0.2832 in the experiment with DLL3 (replicate 1); 1.673 with DLL3 (replicate 2); 0.009923 in the experiment with DLL3 (replicate 3); 0.01002 in the experiment with DLL3 (replicate 4); 0.02772 with DLL3 (replicate 5); 0.1715 in the experiment with DLL3 (replicate 6).
